The text below walks through data of article PMC2889002.

The assay deals with GST fusion of the full-length cytoplasmic loop of connexin43 (GST-CLFL) (UniProt P23242). The assay is described as follows: pull-down.
Chain of UniProt P23242 (P23242 98-155): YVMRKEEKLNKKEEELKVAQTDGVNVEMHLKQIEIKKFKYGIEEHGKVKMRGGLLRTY

“β-tubulin (Tubulin β5/2c) of mouse brain (from UniProt P99024 1-444) (natural protein)” gave an affinity relative to that of Cx43-CT for β-tubulin of 0.2 fold.
